From patent US12084522B2, “Peptides, combination of peptides, and cell based medicaments for use in immunotherapy against urinary bladder cancer and other cancers” (Immatics Biotechnologies GmbH, priority 2016, dated 2024)

Experiments:
HLA-A*02:01 = HLA-A*02:01 (Homo sapiens, UniProt P04439, D140Y/D185E/D98H/E176V/E277Q/G131W/G231S/I119V/I121R/I166T/I218V/L300P/L318F/N151K/N90K/P208A/P217A/Q86G/Q94H/R138H/R169H/T345S); assay: MHC binding assay (UV-ligand exchange, β2m ELISA, peptide exchange yield); conditions: binding to HLA-A*02:01 ranged by peptide exchange yield (UV-ligand exchange, β2m ELISA)
[1] = system: CD8+ T cells from healthy HLA-A*02 donors; assay: In vitro immunogenicity: priming of CD8+ T cells with aAPCs loaded with peptide/MHC complexes and anti-CD28, pMHC multimer readout; format: cell-based, human; conditions: HLA-A*02 restricted peptides, positive wells among evaluable, Table 10B
Description: In order to obtain information regarding the immunogenicity of the TUMAPs of the present invention, the inventors performed investigations using an in vitro T-cell priming assay based on repeated stimulations of CD8+ T cells with artificial antigen presenting cells (aAPCs) loaded with peptide/MHC complexes and anti-CD28 antibody.
In order to perform in vitro stimulations by artificial antigen presenting cells loaded with peptide-MHC complex (pMHC) and anti-CD28 antibody, the inventors first isolated CD8+ T cells from fresh HLA-A*02 leukapheresis products via positive selection using CD8 microbeads (Miltenyi Biotec, Bergisch-Gladbach, Germany) of healthy donors obtained from the University clinics Mannheim, Germany, after informed consent.
PBMCs and isolated CD8+ lymphocytes were incubated in T-cell medium (TCM) until use consisting of RPMI-Glutamax (Invitrogen, Karlsruhe, Germany) supplemented with 10% heat inactivated human AB serum (PAN-Biotech, Aidenbach, Germany), 100 U/ml Penicillin/100 μg/ml Streptomycin (Cambrex, Cologne, Germany), 1 mM sodium pyruvate (CC Pro, Oberdorla, Germany), 20 μg/ml Gentamycin (Cambrex). 2.5 ng/ml IL-7 (PromoCell, Heidelberg, Germany) and 10 U/ml IL-2 (Novartis Pharma, Nürnberg, Germany) were also added to the TCM at this step.
Generation of pMHC/anti-CD28 coated beads, T-cell stimulations and readout was performed in a highly defined in vitro system using four different pMHC molecules per stimulation condition and 8 different pMHC molecules per readout condition.
The purified co-stimulatory mouse IgG2a anti human CD28 Ab 9.3 (Jung et al., 1987) was chemically biotinylated using Sulfo-N-hydroxysuccinimidobiotin as recommended by the manufacturer (Perbio, Bonn, Germany). Beads used were 5.6 μm diameter streptavidin coated polystyrene particles (Bangs Laboratories, Illinois, USA).
800.000 beads/200 μl were coated in 96-well plates in the presence of 4×12.5 ng different biotin-pMHC, washed and 600 ng biotin anti-CD28 were added subsequently in a volume of 200 μl. Stimulations were initiated in 96-well plates by co-incubating 1×10^6 CD8+ T cells with 2×10^5 washed coated beads in 200 μl TCM supplemented with 5 ng/ml IL-12 (PromoCell) for 3 days at 37° C. Half of the medium was then exchanged by fresh TCM supplemented with 80 U/ml IL-2 and incubating was continued for 4 days at 37° C. This stimulation cycle was performed for a total of three times. For the pMHC multimer readout using 8 different pMHC molecules per condition, a two-dimensional combinatorial coding approach was used as previously described (Andersen et al., 2012) with minor modifications encompassing coupling to 5 different fluorochromes. Finally, multimeric analyses were performed by staining the cells with Live/dead near IR dye (Invitrogen, Karlsruhe, Germany), CD8-FITC antibody clone SK1 (BD, Heidelberg, Germany) and fluorescent pMHC multimers. For analysis, a BD LSRII SORP cytometer equipped with appropriate lasers and filters was used. Peptide specific cells were calculated as percentage of total CD8+ cells. Evaluation of multimeric analysis was done using the FlowJo software (Tree Star, Oregon, USA). In vitro priming of specific multimer+CD8+ lymphocytes was detected by comparing to negative control stimulations.

Substance	Peptide exchange (HLA-A*02:01)	Wells positive [%] [1]
75 (RVISSVISV; listed as Homo sapiens) [compound 75]	+++ (>50 = +++)	++ (20%-49% = ++)
111 (LLDVTPKAV; listed as Homo sapiens) [compound 111]	+++ (>50 = +++)	+++ (50%-69% = +++)
114 (IITKDLFQV; listed as Homo sapiens) [compound 114]	+++ (>50 = +++)	+ (<20% = +)
126 (SLLRVGWSV; listed as Homo sapiens) [compound 126]	++++ (>75% = ++++)	++ (20%-49% = ++)
146 (YLARIQGFQV; listed as Homo sapiens) [compound 146]	++++ (>75% = ++++)	++ (20%-49% = ++)
148 (TLGVIPESV; listed as Homo sapiens) [compound 148]	++++ (>75% = ++++)	+ (<20% = +)
